Experimental data from US20150368338A1 (Janssen / Centocor, published 2015).
Numbering of substitutions follows the chain as printed. One block for each binder: values may come before it.

How the values were obtained:
Test in all cases: ProteOn, one antigen concentration
[1] = biological target: T1, IFN-αJ1 (human, UniProt P01567 24-189)
T1 construct: also called IFN-α7; alpha J1

[2] = biological target: T2, human IFN-ω (human, UniProt P05000 24-195)
T2 construct: also called interferon omega

[3] = biological target: T3, IFN-αF (human, UniProt P01568 24-189)
T3 construct: also called IFN-α21; alpha F
T3 chain: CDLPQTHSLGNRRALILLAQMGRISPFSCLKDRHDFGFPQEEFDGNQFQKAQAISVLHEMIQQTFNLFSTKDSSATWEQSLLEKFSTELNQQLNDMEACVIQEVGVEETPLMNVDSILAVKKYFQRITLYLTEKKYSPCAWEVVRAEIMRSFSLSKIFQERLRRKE

[4] = biological target: T4, IFN-αC (human, UniProt P01566 24-189)
T4 construct: also called IFN-α10; alpha C

[5] = biological target: T5, IFN-α4a (human, UniProt P05014 24-189)
T5 construct: also called IFN-αM1

[6] = biological target: T6, IFN-αWA (human, UniProt P05015 24-189)
T6 construct: also called IFN-α16; alpha WA

[7] = biological target: T7, IFN-αG (human, UniProt P01569 24-189)
T7 construct: also called IFN-α5; alpha G

B2: IFWM3329 (antibody, V domains shown)
VH: EVQLVQSGAEVKKPGESLKISCKGSGYSFTSYWIGWVRQMPGKGLEWMGIIDPSDSDTRYSPSFQGQVTISADKSISTAYLQWSSLKASDTAMYYCARHPGLNWAPDFDYWGQGTLVTVSS
VL: DIQMTQSPSSLSASVGDRVTITCRASQSIRNNNLNWYQQKPGKAPKLLIHWASSLQSGVPSRFSGSGSGTDFTLTISSLQPEDFATYYCQQGYDTPFTFGQGTKVEIK
notes: VH IFWH591, VL IFWL1067; converted mAb; also called IFWB3064
Kd [1]: 0.166 nM
Kd [2]: 0.059 nM
Kd [3]: 0.051 nM
Kd [4]: 0.05 nM
Kd [5]: 0.258 nM
Kd [6]: 0.173 nM
Kd [7]: 0.061 nM

B4: IFWM3358 (antibody, V domains shown)
VH: B2 VH with R59A
VL: DIQMTQSPSSLSASVGDRVTITCRASQSITGFLNWYQQKPGKAPKLLIYAASSLQSGVPSRFSGSGSGTDFTLTISSLQPEDFATYYCQQSHDFPLTFGQGTKVEIK
notes: VH IFWH624, VL IFWL1041; converted mAb; also called IFWB3093
Kd [1]: 0.223 nM
Kd [2]: 0.018 nM
Kd [3]: 0.047 nM
Kd [4]: 0.054 nM
Kd [5]: 0.319 nM
Kd [6]: 0.123 nM
Kd [7]: 0.048 nM

B5: IFWM3333 (antibody, V domains shown)
VH: B2 VH
VL: B2 VL with R30D, H50Y, W51A, T95W, F97L
notes: VH IFWH591, VL IFWL1076; converted mAb; also called IFWB3068
Kd [1]: 0.607 nM
Kd [2]: 0.053 nM
Kd [3]: 0.089 nM
Kd [4]: 0.065 nM
Kd [5]: 0.477 nM
Kd [6]: 0.258 nM
Kd [7]: 0.077 nM

B7: IFWM3354 (antibody, V domains shown)
VH: B2 VH with R59A
VL: B4 VL with G31S, F32S, A50F, H92F, F94L
notes: VH IFWH624, VL IFWL1017; converted mAb; also called IFWB3089
Kd [1]: 0.098 nM
Kd [2]: 0.017 nM
Kd [3]: 0.032 nM
Kd [4]: 0.043 nM
Kd [5]: 0.123 nM
Kd [6]: 0.052 nM
Kd [7]: 0.043 nM

B8: IFWM3337 (antibody, V domains shown)
VH: B2 VH
VL: B2 VL with R30S, N32S, G92W, T95H, F97L
notes: VH IFWH591, VL IFWL1087; converted mAb; also called IFWB3072
Kd [1]: 0.071 nM
Kd [2]: 0.02 nM
Kd [3]: 0.016 nM
Kd [4]: 0.017 nM
Kd [5]: 0.091 nM
Kd [6]: 0.037 nM
Kd [7]: 0.034 nM

B9: IFWM3361 (antibody, V domains shown)
VH: B2 VH with R59A
VL: B4 VL with T30A, G31D, A50F, D93S
notes: VH IFWH624, VL IFWL1051; converted mAb; also called IFWB3096
Kd [1]: 0.388 nM
Kd [2]: 0.03 nM
Kd [3]: 0.135 nM
Kd [4]: 0.101 nM
Kd [5]: 0.622 nM
Kd [6]: 0.098 nM
Kd [7]: 0.066 nM

B10: IFWM3351 (antibody, V domains shown)
VH: B2 VH with R59A
VL: B4 VL with T30D, F32A, A50F, H92F
notes: VH IFWH624, VL IFWL1010; converted mAb; also called IFWB3086
Kd [1]: 0.14 nM
Kd [2]: 0.004 nM
Kd [3]: 0.053 nM
Kd [4]: 0.048 nM
Kd [5]: 0.113 nM
Kd [6]: 0.033 nM
Kd [7]: 0.015 nM

B11: IFWM3327 (antibody, V domains shown)
VH: B2 VH
VL: B2 VL with R30A
notes: VH IFWH591, VL IFWL1063; converted mAb; also called IFWB3062
Kd [1]: 0.113 nM
Kd [2]: 0.039 nM
Kd [3]: 0.035 nM
Kd [4]: 0.034 nM
Kd [5]: 0.164 nM
Kd [6]: 0.106 nM
Kd [7]: 0.035 nM

B12: IFWM3359 (antibody, V domains shown)
VH: B2 VH with R59A
VL: B4 VL with T30N, F32V, A50F
notes: VH IFWH624, VL IFWL1047; converted mAb; also called IFWB3094
Kd [1]: 0.136 nM
Kd [2]: 0.021 nM
Kd [3]: 0.053 nM
Kd [4]: 0.041 nM
Kd [5]: 0.147 nM
Kd [6]: 0.051 nM
Kd [7]: 0.04 nM

B14: IFWM3336 (antibody, V domains shown)
VH: B2 VH
VL: B2 VL with N33Y, H50Y, W51A, F97L
notes: VH IFWH591, VL IFWL1085; converted mAb; also called IFWB3071
Kd [1]: 0.11 nM
Kd [2]: 0.019 nM
Kd [3]: 0.061 nM
Kd [4]: 0.047 nM
Kd [5]: 0.235 nM
Kd [6]: 0.105 nM
Kd [7]: 0.051 nM

B15: IFWM3331 (antibody, V domains shown)
VH: B2 VH
VL: B2 VL with R30D, N32S, N33Y, H50Y, W51G, Y93W, T95W, F97L
notes: VH IFWH591, VL IFWL1073; converted mAb; also called IFWB3066
Kd [1]: 0.072 nM
Kd [2]: 0.015 nM
Kd [3]: 0.013 nM
Kd [4]: 0.012 nM
Kd [5]: 0.085 nM
Kd [6]: 0.026 nM
Kd [7]: 0.015 nM

B16: IFWM3332 (antibody, V domains shown)
VH: B2 VH
VL: B2 VL with R30A, N32T, G92W, T95N, F97L
notes: VH IFWH591, VL IFWL1074; converted mAb; also called IFWB3067
Kd [1]: 0.135 nM
Kd [2]: 0.034 nM
Kd [3]: 0.054 nM
Kd [4]: 0.031 nM
Kd [5]: 0.139 nM
Kd [6]: 0.076 nM
Kd [7]: 0.05 nM

B18: IFWM3353 (antibody, V domains shown)
VH: B2 VH with R59A
VL: B4 VL with T30D, G31R, F32A, A50F, H92F
notes: VH IFWH624, VL IFWL1014; converted mAb; also called IFWB3088
Kd [1]: 0.095 nM
Kd [2]: 0.006 nM
Kd [3]: 0.055 nM
Kd [4]: 0.054 nM
Kd [5]: 0.11 nM
Kd [6]: 0.031 nM
Kd [7]: 0.016 nM

B20: IFWM3352 (antibody, V domains shown)
VH: B2 VH with R59A
VL: B4 VL with T30N, G31N, A50F, H92F, D93N, F94L, L96I
notes: VH IFWH624, VL IFWL1013; converted mAb; also called IFWB3087
Kd [1]: 0.287 nM
Kd [2]: 0.06 nM
Kd [3]: 0.152 nM
Kd [4]: 0.121 nM
Kd [5]: 0.267 nM
Kd [6]: 0.087 nM
Kd [7]: 0.09 nM

B21: IFWM3364 (antibody, V domains shown)
VH: B2 VH with R59A
VL: B4 VL with T30R, G31N, F32S, Y49K, A50W, S91L, H92Y, F94W
notes: VH IFWH624, VL IFWL1060; converted mAb; also called IFWB3099
Kd [1]: 0.254 nM
Kd [2]: 0.013 nM
Kd [3]: 0.109 nM
Kd [4]: 0.093 nM
Kd [5]: 0.269 nM
Kd [6]: 0.118 nM
Kd [7]: 0.08 nM

B22: IFWM3360 (antibody, V domains shown)
VH: B2 VH with R59A
VL: B4 VL with T30D, F32A, A50F, S91A, H92Y
notes: VH IFWH624, VL IFWL1048; converted mAb; also called IFWB3095
Kd [1]: 0.174 nM
Kd [2]: 0.025 nM
Kd [3]: 0.049 nM
Kd [4]: 0.056 nM
Kd [5]: 0.233 nM
Kd [6]: 0.061 nM
Kd [7]: 0.043 nM

B23: IFWM3355 (antibody, V domains shown)
VH: B2 VH with R59A
VL: B4 VL with T30N, G31E, A50F, H92Y, D93S, F94T
notes: VH IFWH624, VL IFWL1022; converted mAb; also called IFWB3090
Kd [1]: 0.079 nM
Kd [2]: 0.026 nM
Kd [3]: 0.052 nM
Kd [4]: 0.055 nM
Kd [5]: 0.122 nM
Kd [6]: 0.041 nM
Kd [7]: 0.06 nM

Next, values leading:

Kd [1]: 0.164 nM
Kd [2]: 0.05 nM
Kd [3]: 0.064 nM
Kd [4]: 0.083 nM
Kd [5]: 0.089 nM
Kd [6]: 0.049 nM
Kd [7]: 0.02 nM
B1: IFWM3348 (antibody, V domains shown)
VH: B2 VH with R59A
VL: B4 VL with T30G, A50F, H92Y, D93S, F94L, L96I
notes: VH IFWH624, VL IFWL1006; converted mAb; also called IFWB3083

Kd [1]: 0.36 nM
Kd [2]: 0.108 nM
Kd [3]: 0.091 nM
Kd [4]: 0.099 nM
Kd [5]: 0.41 nM
Kd [6]: 0.207 nM
Kd [7]: 0.072 nM
B3: IFWM3328 (antibody, V domains shown)
VH: B2 VH
VL: DIQMTQSPSSLSASVGDRVTITCRASQSINNLNWYQQKPGKAPKLLIYWASSLQSGVPSRFSGSGSGTDFTLTISSLQPEDFATYYCQQGYDTPFTFGQGTKVEIK
notes: VH IFWH591, VL IFWL1064; converted mAb; also called IFWB3063

Kd [1]: 2.4 nM
Kd [2]: 0.345 nM
Kd [3]: 5.21 nM
Kd [4]: 0.62 nM
Kd [5]: 0.744 nM
Kd [6]: 0.517 nM
Kd [7]: 0.941 nM
B6: IFWM3334 (antibody, V domains shown)
VH: B2 VH
VL: B2 VL with N33S, H50Y, W51A, G92D, D94N, T95W, F97L
notes: VH IFWH591, VL IFWL1082; converted mAb; also called IFWB3069

Kd [1]: 0.123 nM
Kd [2]: 0.007 nM
Kd [3]: 0.052 nM
Kd [4]: 0.056 nM
Kd [5]: 0.174 nM
Kd [6]: 0.102 nM
Kd [7]: 0.065 nM
B13: IFWM3349 (antibody, V domains shown)
VH: B2 VH with R59A
VL: B4 VL with T30G, G31K, F32S, A50F, H92Y
notes: VH IFWH624, VL IFWL1007; converted mAb; also called IFWB3084

Kd [1]: 0.13 nM
Kd [2]: 0.004 nM
Kd [3]: 0.039 nM
Kd [4]: 0.023 nM
Kd [5]: 0.17 nM
Kd [6]: 0.037 nM
Kd [7]: 0.014 nM
B17: IFWM3357 (antibody, V domains shown)
VH: B2 VH with R59A
VL: B4 VL with T30S, G31E, F32Y, A50F, D93S, F94L, L96I
notes: VH IFWH624, VL IFWL1038; converted mAb; also called IFWB3092

Kd [1]: 0.055 nM
Kd [2]: 0.02 nM
Kd [3]: 0.054 nM
Kd [4]: 0.057 nM
Kd [5]: 0.161 nM
Kd [6]: 0.066 nM
Kd [7]: 0.098 nM
B19: IFWM3350 (antibody, V domains shown)
VH: B2 VH with R59A
VL: B4 VL with T30D, G31D, A50F, D93T, F94L
notes: VH IFWH624, VL IFWL1009; converted mAb; also called IFWB3085

Kd [1]: 0.245 nM
Kd [2]: 0.057 nM
Kd [3]: 0.064 nM
Kd [4]: 0.046 nM
Kd [5]: 0.319 nM
Kd [6]: 0.2 nM
Kd [7]: 0.046 nM
B24: IFWM3338 (antibody, V domains shown)
VH: B2 VH
VL: B2 VL with N32T
notes: VH IFWH591, VL IFWL1091; converted mAb; also called IFWB3073

Kd [1]: 0.161 nM
Kd [2]: 0.049 nM
Kd [3]: 0.065 nM
Kd [4]: 0.059 nM
Kd [5]: 0.235 nM
Kd [6]: 0.141 nM
Kd [7]: 0.079 nM
B25: IFWM3339 (antibody, V domains shown)
VH: B2 VH
VL: B2 VL with R30A, N33D, G92D, T95W, F97L
notes: VH IFWH591, VL IFWL1093; converted mAb; also called IFWB3074
